# Reference: the supplement of paper PMC10065799, “High-throughput profiling of sequence recognition by tyrosine kinases and SH2 domains using bacterial peptide display” (eLife, 2023)
# Columns and labels:
# MERTK = MERTK (UniProt Q12866); experiment: phosphorylation enrichment, bacterial display (enrichment ratio); higher = better substrate or ligand; peptides without Tyr show the background
# Fer (mouse) = experiment: as above
# AncSZ = experiment: as above
# FGFR1 = FGFR1 (UniProt P11362); experiment: as above
# FGFR3 = FGFR3 (UniProt P22607); experiment: as above
# Chain of FGFR3 (P22607 whole entry, looked up): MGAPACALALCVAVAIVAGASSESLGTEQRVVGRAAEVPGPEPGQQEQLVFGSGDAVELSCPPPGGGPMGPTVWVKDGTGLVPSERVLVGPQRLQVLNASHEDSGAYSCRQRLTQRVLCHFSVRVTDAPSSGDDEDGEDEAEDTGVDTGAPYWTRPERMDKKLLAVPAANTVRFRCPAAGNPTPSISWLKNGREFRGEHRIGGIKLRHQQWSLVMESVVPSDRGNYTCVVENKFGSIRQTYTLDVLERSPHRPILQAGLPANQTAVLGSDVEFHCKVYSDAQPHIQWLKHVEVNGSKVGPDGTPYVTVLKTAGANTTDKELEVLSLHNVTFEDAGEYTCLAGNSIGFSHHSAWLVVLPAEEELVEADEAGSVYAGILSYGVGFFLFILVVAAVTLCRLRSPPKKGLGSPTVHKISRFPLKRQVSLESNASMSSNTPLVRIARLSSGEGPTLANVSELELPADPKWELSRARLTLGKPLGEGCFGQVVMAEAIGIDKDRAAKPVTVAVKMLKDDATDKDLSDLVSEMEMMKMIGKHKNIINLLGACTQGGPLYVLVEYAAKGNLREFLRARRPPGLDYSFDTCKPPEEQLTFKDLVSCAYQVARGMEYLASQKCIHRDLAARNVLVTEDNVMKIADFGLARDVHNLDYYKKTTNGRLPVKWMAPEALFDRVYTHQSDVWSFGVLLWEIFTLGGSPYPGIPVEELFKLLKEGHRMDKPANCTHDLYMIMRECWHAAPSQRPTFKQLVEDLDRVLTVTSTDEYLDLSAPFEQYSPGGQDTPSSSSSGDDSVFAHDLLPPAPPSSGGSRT
# EPHB1 = EPHB1 (UniProt P54762); experiment: as above
# c-Src = experiment: as above
# Fes = Fes (UniProt P07332); experiment: as above
# Chain of Fes (P07332 whole entry, looked up): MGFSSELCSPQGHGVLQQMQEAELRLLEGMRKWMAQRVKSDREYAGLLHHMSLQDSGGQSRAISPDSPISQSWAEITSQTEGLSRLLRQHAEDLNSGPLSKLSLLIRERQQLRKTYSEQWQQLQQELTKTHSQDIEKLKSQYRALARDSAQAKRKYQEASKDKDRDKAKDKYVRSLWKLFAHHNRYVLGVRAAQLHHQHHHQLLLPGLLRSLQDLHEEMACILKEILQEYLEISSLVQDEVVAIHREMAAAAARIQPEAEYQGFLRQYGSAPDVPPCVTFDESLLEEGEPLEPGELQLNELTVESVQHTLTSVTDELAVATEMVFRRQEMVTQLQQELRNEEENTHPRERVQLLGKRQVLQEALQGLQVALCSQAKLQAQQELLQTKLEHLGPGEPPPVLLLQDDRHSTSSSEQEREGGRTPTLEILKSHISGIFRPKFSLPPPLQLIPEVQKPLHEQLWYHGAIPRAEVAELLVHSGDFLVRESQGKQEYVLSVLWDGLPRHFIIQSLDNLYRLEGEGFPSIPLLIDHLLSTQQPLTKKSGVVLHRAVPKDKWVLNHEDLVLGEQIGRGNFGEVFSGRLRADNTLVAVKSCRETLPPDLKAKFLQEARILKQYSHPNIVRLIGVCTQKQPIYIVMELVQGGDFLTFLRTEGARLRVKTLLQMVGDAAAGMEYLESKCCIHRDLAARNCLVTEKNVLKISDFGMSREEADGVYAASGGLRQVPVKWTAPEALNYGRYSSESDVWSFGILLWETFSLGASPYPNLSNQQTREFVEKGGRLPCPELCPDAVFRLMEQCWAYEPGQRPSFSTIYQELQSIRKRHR
# Fyn = Fyn (UniProt P06241); experiment: as above
# Chain of Fyn (P06241 whole entry, looked up): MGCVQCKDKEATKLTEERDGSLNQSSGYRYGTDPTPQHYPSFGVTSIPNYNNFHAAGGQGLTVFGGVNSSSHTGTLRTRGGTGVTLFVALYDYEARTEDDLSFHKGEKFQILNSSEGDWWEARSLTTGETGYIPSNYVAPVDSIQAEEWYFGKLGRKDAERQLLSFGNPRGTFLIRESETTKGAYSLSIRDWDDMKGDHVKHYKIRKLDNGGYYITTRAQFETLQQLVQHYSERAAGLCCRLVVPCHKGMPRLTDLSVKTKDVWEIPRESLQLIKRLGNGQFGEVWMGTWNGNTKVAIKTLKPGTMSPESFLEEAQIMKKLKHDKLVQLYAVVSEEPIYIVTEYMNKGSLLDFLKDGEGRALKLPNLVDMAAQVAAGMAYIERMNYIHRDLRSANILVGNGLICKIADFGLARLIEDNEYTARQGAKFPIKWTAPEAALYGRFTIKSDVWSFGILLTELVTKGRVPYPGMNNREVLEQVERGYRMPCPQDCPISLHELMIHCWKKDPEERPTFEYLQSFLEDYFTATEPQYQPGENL
# Hck = Hck (UniProt P08631); experiment: as above
# Chain of Hck (P08631 whole entry, looked up): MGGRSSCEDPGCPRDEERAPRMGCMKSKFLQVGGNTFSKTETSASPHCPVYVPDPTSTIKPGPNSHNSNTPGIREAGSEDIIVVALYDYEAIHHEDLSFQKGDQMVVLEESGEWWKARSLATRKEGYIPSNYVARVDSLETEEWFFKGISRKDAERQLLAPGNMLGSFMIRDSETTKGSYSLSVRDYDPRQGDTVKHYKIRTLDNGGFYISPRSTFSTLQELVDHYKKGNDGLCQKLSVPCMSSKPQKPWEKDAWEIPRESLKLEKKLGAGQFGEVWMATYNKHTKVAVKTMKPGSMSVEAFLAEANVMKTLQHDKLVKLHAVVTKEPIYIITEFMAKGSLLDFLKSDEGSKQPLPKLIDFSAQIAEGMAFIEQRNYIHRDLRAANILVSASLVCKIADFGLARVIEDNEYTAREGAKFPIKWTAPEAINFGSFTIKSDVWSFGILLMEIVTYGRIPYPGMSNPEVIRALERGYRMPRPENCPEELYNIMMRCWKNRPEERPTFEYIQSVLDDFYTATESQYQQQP
# c-Abl (mouse) = experiment: as above
# EPHB2 = EPHB2 (UniProt P29323); experiment: as above
# Jak2 = Jak2 (UniProt O60674); experiment: as above
# Chain of Jak2 (O60674 whole entry, looked up): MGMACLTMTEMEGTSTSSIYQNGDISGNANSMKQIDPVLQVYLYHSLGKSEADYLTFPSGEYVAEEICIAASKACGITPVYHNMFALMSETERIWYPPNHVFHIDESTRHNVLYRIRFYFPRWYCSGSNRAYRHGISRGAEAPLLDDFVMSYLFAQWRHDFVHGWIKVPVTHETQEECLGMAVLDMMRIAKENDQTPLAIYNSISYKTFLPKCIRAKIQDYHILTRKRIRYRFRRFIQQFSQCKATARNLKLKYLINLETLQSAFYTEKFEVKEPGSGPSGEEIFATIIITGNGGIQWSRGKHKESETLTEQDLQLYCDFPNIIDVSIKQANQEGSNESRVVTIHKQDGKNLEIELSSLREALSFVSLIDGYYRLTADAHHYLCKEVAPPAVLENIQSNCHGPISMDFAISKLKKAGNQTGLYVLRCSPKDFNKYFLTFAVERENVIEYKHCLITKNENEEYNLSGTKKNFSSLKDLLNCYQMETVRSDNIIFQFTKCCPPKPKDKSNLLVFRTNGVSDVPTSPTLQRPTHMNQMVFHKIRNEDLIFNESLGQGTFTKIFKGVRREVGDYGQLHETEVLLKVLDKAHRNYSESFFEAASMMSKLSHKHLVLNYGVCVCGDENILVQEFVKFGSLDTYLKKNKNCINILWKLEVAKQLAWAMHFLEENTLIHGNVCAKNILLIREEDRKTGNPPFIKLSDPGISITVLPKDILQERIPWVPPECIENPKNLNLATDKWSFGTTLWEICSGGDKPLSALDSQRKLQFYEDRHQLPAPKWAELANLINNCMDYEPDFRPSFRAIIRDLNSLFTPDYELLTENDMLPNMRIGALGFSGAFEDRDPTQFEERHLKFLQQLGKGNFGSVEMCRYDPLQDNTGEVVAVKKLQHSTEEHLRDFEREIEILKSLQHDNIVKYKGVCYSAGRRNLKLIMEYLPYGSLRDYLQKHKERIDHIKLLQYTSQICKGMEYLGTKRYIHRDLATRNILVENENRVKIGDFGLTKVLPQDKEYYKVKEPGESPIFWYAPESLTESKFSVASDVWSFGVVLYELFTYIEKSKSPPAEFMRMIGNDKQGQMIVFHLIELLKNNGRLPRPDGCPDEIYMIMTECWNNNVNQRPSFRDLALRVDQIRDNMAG
# SHP2-C SH2 = experiment: SH2 binding enrichment of the phosphorylated peptide, bacterial display (enrichment ratio); higher = better substrate or ligand; peptides without Tyr show the background
# Grb2 SH2 = Grb2 SH2 (UniProt P62993); experiment: as above
# c-Src SH2 = experiment: as above
# 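Wherever SH2 binding enrichment of the phosphorylated peptide, bacterial display is given: peptide library displayed on the E. coli surface as eCPX fusions, selected cells deep-sequenced, score is each peptide's frequency after selection divided by its frequency in the input.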
# 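Wherever phosphorylation enrichment, bacterial display is given: 11-residue human phosphosite peptides and single-mutation variants displayed on the E. coli surface, counted by deep sequencing, each peptide's frequency after selection divided by its frequency in the unselected input library; frequency after pTyr selection over input frequency; kinase dosed for 20-30% of maximal phosphorylation in three min.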
# Chain of MERTK (Q12866 whole entry, looked up): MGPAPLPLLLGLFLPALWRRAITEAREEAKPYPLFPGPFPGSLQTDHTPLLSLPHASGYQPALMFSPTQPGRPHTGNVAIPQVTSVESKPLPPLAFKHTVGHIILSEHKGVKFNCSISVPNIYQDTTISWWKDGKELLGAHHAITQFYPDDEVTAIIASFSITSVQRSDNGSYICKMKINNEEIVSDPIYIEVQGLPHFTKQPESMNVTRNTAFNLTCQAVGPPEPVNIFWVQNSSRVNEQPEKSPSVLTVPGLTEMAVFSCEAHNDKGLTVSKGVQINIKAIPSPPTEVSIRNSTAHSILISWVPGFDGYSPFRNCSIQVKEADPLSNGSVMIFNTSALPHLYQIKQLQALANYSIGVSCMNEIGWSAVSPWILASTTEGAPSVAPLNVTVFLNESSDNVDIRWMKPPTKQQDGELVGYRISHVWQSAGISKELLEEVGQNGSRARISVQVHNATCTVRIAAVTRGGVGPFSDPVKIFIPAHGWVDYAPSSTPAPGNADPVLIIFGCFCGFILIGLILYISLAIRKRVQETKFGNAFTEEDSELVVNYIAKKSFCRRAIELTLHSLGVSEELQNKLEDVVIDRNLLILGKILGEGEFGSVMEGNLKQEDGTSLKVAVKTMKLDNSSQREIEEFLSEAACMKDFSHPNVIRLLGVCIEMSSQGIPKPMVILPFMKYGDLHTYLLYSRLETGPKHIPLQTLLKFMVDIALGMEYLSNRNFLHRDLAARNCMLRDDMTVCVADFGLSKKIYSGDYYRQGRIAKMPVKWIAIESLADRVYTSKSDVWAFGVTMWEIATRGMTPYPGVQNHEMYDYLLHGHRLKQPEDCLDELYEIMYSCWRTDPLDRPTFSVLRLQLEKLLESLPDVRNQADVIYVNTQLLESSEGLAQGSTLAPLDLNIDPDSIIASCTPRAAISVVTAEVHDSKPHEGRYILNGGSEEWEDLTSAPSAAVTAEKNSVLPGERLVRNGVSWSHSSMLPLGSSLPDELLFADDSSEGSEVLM
SH2 binding enrichment (SHP2-C SH2),SH2 binding enrichment (Grb2 SH2),SH2 binding enrichment (c-Src SH2),Sequence,phosphorylation enrichment (MERTK),phosphorylation enrichment (Fer (mouse)),phosphorylation enrichment (AncSZ),phosphorylation enrichment (FGFR1),phosphorylation enrichment (FGFR3),phosphorylation enrichment (EPHB1),phosphorylation enrichment (c-Src),phosphorylation enrichment (Fes),phosphorylation enrichment (Fyn),phosphorylation enrichment (Hck),phosphorylation enrichment (c-Abl (mouse)),phosphorylation enrichment (EPHB2),phosphorylation enrichment (Jak2)
1.01,1.27,0.925,SLLLSYYLIKW [NUP160_Y773_P768S],0.649,0.47,1.12,2.51,2.09,0.673,0.587,1.24,0.456,0.499,0.882,0.539,2.23
0.794,0.651,0.521,PLDGEYFILQI [TP53_Y327_T329I],1.22,0.978,4.19,14.5,12.9,2.02,2.88,2,3.7,1.88,1.24,2.04,2.88
0.798,0.772,0.498,WNRDKYAATTT [TRIM39_Y439_G436R],0.471,0.37,0.734,0.439,0.34,0.448,0.411,0.59,0.358,0.375,0.542,0.401,0.65
0.781,0.703,1.29,RLCQDYDIIGP [ANK1_Y1073_T1075I],1.26,1.81,2.56,2.35,1.84,10,1.47,1.26,1.6,2.46,0.663,12.7,1.17
0.55,0.798,0.452,QQLDEYQELLD [LMNA_Y359],0.6,0.598,1.63,0.615,1.18,0.776,0.726,1.57,0.669,0.684,1.01,0.757,1.3
0.743,1.01,0.757,ARVDTYCRHNF [HLA-DRB1_Y107_A103R_YF],0.486,0.433,0.7,0.443,0.53,0.41,0.496,0.992,0.439,0.45,0.677,0.494,0.731
0.715,0.844,0.453,LDAGEYCVPRG [BEX1_Y43],0.866,1.47,8.78,1.32,1.73,3.38,0.816,2.01,1.26,1.57,3.62,3.87,1.05
0.734,0.8,0.543,DEDFLCREELA [POR_Y575_Y575C_YF],0.501,0.486,1.25,0.572,0.846,0.701,0.613,1.38,0.528,0.629,0.821,0.657,1.33
0.44,0.835,0.447,AAVLNYKAGRD [GRIN2A_Y737],0.41,0.342,0.461,0.382,0.379,0.352,0.432,0.482,0.397,0.322,0.389,0.33,0.469
